Earlier results in paper PMC5257200.

Target: His19 (UniProt position 19, ILSALHFMAWT)
Conditions: Membrane-bound peptide

## Influenza B virus M2 protein peptide BM2(3–33) (Influenza B virus (strain not stated for this construct))
  pKa: ~6.5
